Measured values as given in the RNAGym collection of RNA variant scans (doi:10.1073/pnas.2313332121).
Variants at the floor of the assay were thinned out.

B1: TPR 5TU (parent)
chain: GGAUCUUCUCGAUCUAACAAAAAAGACAAAUCUGCCACAAAGCUUGAGAGCAUCUUCGGAUGCAGAGGCGGCAGCCUUCGGUGGCGCGAUAGCGCCAACGUUCUCAACUAUGACACGCAAAACGCGUGCUCCGUUGAAUGGAGUUUAUCAUG

Variants of: B1
Assay: polymerase ribozyme fitness, log enrichment relative to wild type (log ratio); higher = more active; in vitro selection for triplet polymerase activity
Method in brief: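 PCR was used to build mutant libraries for each subunit of a heterodimeric triplet polymerase ribozyme, which were then transcribed. A single in vitro selection round, in triplicate, used a frozen incubation at −7 °C and recovered extended constructs by gel excision, streptavidin beads and RT-PCR. Fitness is the logarithm of genotype enrichment relative to wild-type enrichment, averaged over replicates with inverse-variance weights. The logarithm is base 2, and after Illumina sequencing only genotypes with ≥10 input reads and ≥1 read per output were kept.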

C8G C54G C85U A121U C131A G136U A137G and U7A A16U A20G G48A C57A G58U A64G C87A G92U G126A C129A A137C cannot be ordered by “polymerase ribozyme fitness (log ratio)” value: ≤ -4.2 for the first, ≤ -4.2 for the second.

Compared with C8A A17C A26C A40C C87U U144G, C8A A21C is higher in “polymerase ribozyme fitness (log ratio)” value: ≤ -4.2 for the first, -3.76 for the second.

C8G G11A A52G A89U C93G and C8G C57U G59A C69G G88U C96G A120U cannot be ordered by “polymerase ribozyme fitness (log ratio)” value: ≤ -4.2 for the first, ≤ -4.2 for the second.

C8G C18U C38U G50C C54U G65C C87U C99G and U7A A24C G50U A52U C87G cannot be ordered by “polymerase ribozyme fitness (log ratio)” value: ≤ -4.2 for the first, ≤ -4.2 for the second.

C8A G58C U82A A98G G136U and C8G C125U G141C cannot be ordered by “polymerase ribozyme fitness (log ratio)” value: ≤ -4.2 for the first, ≤ -4.2 for the second.

U7G A47C A49U G86U C99U and U7G C8G U45G A66U C85U A138U cannot be ordered by “polymerase ribozyme fitness (log ratio)” value: ≤ -4.2 for the first, ≤ -4.2 for the second.

Going from C8A C85U to U6G U78G C93U A98G A142C, the “polymerase ribozyme fitness (log ratio)” value falls from -2.6 to -3.99.

C8G A12C A23G A52U C57U C93A C95G A110U and U7A U9A A21U U55A G59A C99G C129U A147C cannot be ordered by “polymerase ribozyme fitness (log ratio)” value: ≤ -4.2 for the first, ≤ -4.2 for the second.

U7A A49C C103A U139A and C8A C10G C18U A21U C54A C87U A120G cannot be ordered by “polymerase ribozyme fitness (log ratio)” value: ≤ -4.2 for the first, ≤ -4.2 for the second.

C8G A17C C18G A41C A52U G83A G140U and U7G A21G C57G U127G U130G C131U U135G U148A cannot be ordered by “polymerase ribozyme fitness (log ratio)” value: ≤ -4.2 for the first, ≤ -4.2 for the second.

U7A C8G A89C C95G and C8A C10U C75A G86A A98U A138C cannot be ordered by “polymerase ribozyme fitness (log ratio)” value: ≤ -4.2 for the first, ≤ -4.2 for the second.

Going from C8A U31G C36U C114U A142C to U7G G50U, the “polymerase ribozyme fitness (log ratio)” value rises from -4.19 to -3.02.

U7A A23C G50U G59A A73C G86U C95G C108U and C8G G11A A17U G71U G88U U127C U135G U148C A150C cannot be ordered by “polymerase ribozyme fitness (log ratio)” value: ≤ -4.2 for the first, ≤ -4.2 for the second.

U7A C43U A49G A110G and C8A A47G A49C G59C A60U G84A C125G cannot be ordered by “polymerase ribozyme fitness (log ratio)” value: ≤ -4.2 for the first, ≤ -4.2 for the second.

C8A G88U G92U C95U A106C U127G and U7A U31G G81C G84U C95U A107G G128U A137G cannot be ordered by “polymerase ribozyme fitness (log ratio)” value: ≤ -4.2 for the first, ≤ -4.2 for the second.

C8A A17U A26U G48U G68U C93G C132G G141C U148G and C8A C14U A21C U53A G83A A150C cannot be ordered by “polymerase ribozyme fitness (log ratio)” value: ≤ -4.2 for the first, ≤ -4.2 for the second.

Going from U7G A60U G83C C85A C105G A137G to U7A A29U C35U A66C U82G A113U, the “polymerase ribozyme fitness (log ratio)” value rises from ≤ -4.2 to -3.86.

U7G A19U A52U U56A A91G C108A and C8A A17G U55A C93A G126U G140A cannot be ordered by “polymerase ribozyme fitness (log ratio)” value: ≤ -4.2 for the first, ≤ -4.2 for the second.

C8G G25C U33C C93U G124C and U7C A16U A49G G92C cannot be ordered by “polymerase ribozyme fitness (log ratio)” value: ≤ -4.2 for the first, ≤ -4.2 for the second.

U7C A21C A24C G62C C76A G133C and C8G G42C G50C A91C C93A cannot be ordered by “polymerase ribozyme fitness (log ratio)” value: ≤ -4.2 for the first, ≤ -4.2 for the second.

With U7G G48C G84A the “polymerase ribozyme fitness (log ratio)” value was -3.94.
